Reference: article PMC9377746 (Molecular Cancer Therapeutics, 2022)
Blank lines part the entries; values can stand above or below the molecule they belong to.

Key:
human FcγRIIb (human) = human FcγRIIb (human) (UniProt P31994); assay: SPR
[1] = target: human Clever-1 on cells and in tissue (Homo sapiens, UniProt Q9NY15); assay: flow cytometry on cells
purified human Clever-1 = purified human Clever-1 (Homo sapiens, UniProt Q9NY15); assay: SPR
[2] = target: purified cynomolgus Clever-1 (Macaca fascicularis, UniProt A0A2K5VS84); assay: SPR

human FcγRIIb (human), sequence (P31994 43-310): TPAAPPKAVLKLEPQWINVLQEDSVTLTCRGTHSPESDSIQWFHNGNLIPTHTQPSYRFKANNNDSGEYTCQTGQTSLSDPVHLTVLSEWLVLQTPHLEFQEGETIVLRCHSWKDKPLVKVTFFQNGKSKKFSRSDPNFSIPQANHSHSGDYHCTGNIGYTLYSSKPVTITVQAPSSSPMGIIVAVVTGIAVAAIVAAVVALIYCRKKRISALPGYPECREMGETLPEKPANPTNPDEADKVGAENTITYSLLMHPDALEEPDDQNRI
human Clever-1 on cells and in tissue, sequence (Q9NY15 26-2570): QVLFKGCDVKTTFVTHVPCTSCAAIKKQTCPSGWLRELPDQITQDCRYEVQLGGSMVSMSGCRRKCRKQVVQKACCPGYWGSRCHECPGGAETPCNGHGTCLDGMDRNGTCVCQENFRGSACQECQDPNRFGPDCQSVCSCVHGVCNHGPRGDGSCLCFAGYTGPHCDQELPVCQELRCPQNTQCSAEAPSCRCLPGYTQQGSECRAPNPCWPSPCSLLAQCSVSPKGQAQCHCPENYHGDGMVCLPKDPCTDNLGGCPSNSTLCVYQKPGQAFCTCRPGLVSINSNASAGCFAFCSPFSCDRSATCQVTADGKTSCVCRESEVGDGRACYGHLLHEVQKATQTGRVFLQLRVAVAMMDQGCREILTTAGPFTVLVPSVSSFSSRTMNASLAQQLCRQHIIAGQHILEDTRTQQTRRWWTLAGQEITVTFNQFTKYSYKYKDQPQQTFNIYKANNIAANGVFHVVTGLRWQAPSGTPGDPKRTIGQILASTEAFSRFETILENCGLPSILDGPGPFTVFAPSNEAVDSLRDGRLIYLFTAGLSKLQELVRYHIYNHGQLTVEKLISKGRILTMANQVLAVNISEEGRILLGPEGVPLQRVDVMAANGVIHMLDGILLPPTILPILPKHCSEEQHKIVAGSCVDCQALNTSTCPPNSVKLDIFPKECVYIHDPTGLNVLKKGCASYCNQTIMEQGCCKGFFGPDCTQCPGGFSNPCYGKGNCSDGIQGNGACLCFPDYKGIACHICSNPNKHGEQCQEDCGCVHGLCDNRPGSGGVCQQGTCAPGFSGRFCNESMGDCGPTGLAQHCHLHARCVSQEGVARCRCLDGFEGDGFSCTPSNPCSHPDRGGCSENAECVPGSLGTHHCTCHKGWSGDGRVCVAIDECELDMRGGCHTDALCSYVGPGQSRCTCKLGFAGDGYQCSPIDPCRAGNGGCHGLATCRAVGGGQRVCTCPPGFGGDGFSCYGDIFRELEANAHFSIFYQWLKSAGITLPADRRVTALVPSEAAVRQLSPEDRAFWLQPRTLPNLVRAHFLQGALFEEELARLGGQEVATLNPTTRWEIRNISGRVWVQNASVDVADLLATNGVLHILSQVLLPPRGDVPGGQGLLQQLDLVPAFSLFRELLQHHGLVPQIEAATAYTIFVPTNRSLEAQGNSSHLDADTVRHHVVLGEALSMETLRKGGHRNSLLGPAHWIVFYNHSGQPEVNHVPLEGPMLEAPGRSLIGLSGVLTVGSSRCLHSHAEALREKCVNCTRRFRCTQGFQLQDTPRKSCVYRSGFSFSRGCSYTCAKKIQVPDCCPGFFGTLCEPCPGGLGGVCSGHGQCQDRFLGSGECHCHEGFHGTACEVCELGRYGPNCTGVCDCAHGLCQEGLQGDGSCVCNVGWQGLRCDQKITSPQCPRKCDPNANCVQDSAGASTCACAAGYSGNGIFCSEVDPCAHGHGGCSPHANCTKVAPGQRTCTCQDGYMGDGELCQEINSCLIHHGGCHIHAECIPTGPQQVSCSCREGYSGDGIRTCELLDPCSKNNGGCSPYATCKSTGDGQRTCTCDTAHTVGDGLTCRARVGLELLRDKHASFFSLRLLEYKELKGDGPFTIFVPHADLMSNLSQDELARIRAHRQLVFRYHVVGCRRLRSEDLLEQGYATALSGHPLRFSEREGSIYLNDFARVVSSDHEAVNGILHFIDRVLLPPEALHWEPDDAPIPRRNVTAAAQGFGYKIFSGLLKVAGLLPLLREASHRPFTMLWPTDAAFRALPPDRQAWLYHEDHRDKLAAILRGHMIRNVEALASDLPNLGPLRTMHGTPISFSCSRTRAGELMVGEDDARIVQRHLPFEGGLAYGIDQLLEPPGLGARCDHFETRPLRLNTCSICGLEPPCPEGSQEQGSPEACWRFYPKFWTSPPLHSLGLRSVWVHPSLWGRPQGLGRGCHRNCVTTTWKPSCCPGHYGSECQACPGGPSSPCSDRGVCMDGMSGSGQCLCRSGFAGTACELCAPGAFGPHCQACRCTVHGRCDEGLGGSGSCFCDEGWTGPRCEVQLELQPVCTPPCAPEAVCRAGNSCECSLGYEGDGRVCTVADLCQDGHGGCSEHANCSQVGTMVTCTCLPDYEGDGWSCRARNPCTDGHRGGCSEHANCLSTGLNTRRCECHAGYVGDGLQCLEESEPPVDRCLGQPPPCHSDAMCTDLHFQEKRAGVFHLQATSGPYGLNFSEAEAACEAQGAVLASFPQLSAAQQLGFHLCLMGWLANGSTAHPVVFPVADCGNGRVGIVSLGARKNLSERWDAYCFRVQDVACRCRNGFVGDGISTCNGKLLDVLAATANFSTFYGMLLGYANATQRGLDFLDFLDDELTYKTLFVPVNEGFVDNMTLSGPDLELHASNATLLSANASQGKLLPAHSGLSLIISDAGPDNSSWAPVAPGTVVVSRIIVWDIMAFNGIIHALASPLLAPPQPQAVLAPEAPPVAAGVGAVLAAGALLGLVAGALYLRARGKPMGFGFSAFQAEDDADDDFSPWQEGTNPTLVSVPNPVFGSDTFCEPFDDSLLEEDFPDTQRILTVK
purified human Clever-1, sequence (Q9NY15 26-2570): as above

Kd (human FcγRIIb (human)): 11400 nM
Molecule: bexmarilimab (antibody)

Kd (human FcγRIIb (human)): 5130 nM
Molecule: rituximab (antibody)

EC50 [1]: 2.2 nM
Kd (purified human Clever-1): 0.75 nM
Kd [2]: 0.92 nM
B1: bexmarilimab (antibody, V domains shown)
VH: QVTLKESGPTLVKPTQTLTLTCSFSGFSLSTSGMGIGWIRQPPGKALEWLAHIWWDDDKRYNPALKSRLTISKDTSKNQVVLTMTNMDPVDTATYYCARHYGYDPYYAMDYWGQGTLVTVSS
VL: EIVLTQSPGTLSLSPGERATLSCTASSSVSSSYLHWYQQKPGKAPKLLIYRTSNLASGVPSRFSGSGSGTDYTLTISSLQPEDFATYYCHQYHRSPPTFGQGTKLEIK
